Measurements taken from PMC3261901.

What was measured:
[1] = target: Trypanosoma cruzi oligopeptidase B (OPBTc), recombinant, N-terminal His-tagged (Trypanosoma cruzi (CL Brener)); test: SEC; Superdex 200 10/300, 25 mM Tris-HCl pH 8.0, 200 mM NaCl, room temperature, calibrated with proteins of known Stokes radii; also run with 0.5 or 1.0 M NaCl (same elution, dimer not disrupted)
[2] = target: Trypanosoma cruzi oligopeptidase B (OPBTc), recombinant, N-terminal His-tagged (Trypanosoma cruzi (CL Brener)); test: SEC; enzyme incubated at 28, 37, 42, 50 or 60°C for 20 min before the run; Superdex 200 10/300, 25 mM Tris-HCl pH 8.0; at 50 and 60°C a void-volume aggregate peak and a second peak of 160 kDa
[3] = target: Trypanosoma cruzi oligopeptidase B (OPBTc), recombinant, N-terminal His-tagged (Trypanosoma cruzi (CL Brener)); test: AUC; sedimentation velocity, 10 °C, OPBTc at 28.1, 8.4 and 1.8 µM in 25 mM Tris pH 8.0, 100 mM NaCl, 130,000 x g; c(s) analysis, s combined with the Stokes radius from SEC

Measured: stoichiometry N

Trypanosoma cruzi oligopeptidase B (OPBTc), recombinant, N-terminal His-tagged (enzyme)
2: all assays above
